From PMC9637102, “Structural basis for the activation of the lipid scramblase TMEM16F” (Nature Communications, 2022)

Tests used:
[1] = target: the molecule itself; experiment: cryo-EM structure; protein in digitonin (20 mM HEPES pH 7.4, 150 mM NaCl, 2 mM EGTA, 0.1% digitonin), 1.5-2 mg/ml; Ca2+-free, or with 2 mM free CaCl2 and 0.01 mM diC8-PI(4,5)P2; homodimer
[2] = target: the molecule itself; experiment: cryo-EM structure; protein in GDN (0.03% in the SEC buffer), Ca2+-bound; homodimer

B1: murine TMEM16F mutant F518H (natural protein, UniProt Q6P9J9 1-911, looked up)
chain: MQMMTRKVLLNMELEEDDDEDGDIVLENFDQTIVCPTFGSLENQQDFRTPEFEEFNGKPDSLFFTDGQRRIDFILVYEDESKKENNKKGTNEKQKRKRQAYESNLICHGLQLEATRSVSDDKLVFVKVHAPWEVLCTYAEIMHIKLPLKPNDLKTRSPFGNLNWFTKVLRVNESVIKPEQEFFTAPFEKSRMNDFYILDRDSFFNPATRSRIVYFILSRVKYQVMNNVNKFGINRLVSSGIYKAAFPLHDCRFNYESEDISCPSERYLLYREWAHPRSIYKKQPLDLIRKYYGEKIGIYFAWLGYYTQMLLLAAVVGVACFLYGYLDQDNCTWSKEVCDPDIGGQILMCPQCDRLCPFWRLNITCESSKKLCIFDSFGTLIFAVFMGVWVTLFLEFWKRRQAELEYEWDTVELQQEEQARPEYEAQCNHVVINEITQEEERIPFTTCGKCIRVTLCASAVFFWILLIIASVIGIIVYRLSVFIVFSTTLPKNPNGTDPIQKYLTPQMATSITASIISHIIIMILNTIYEKVAIMITNFELPRTQTDYENSLTMKMFLFQFVNYYSSCFYIAFFKGKFVGYPGDPVYLLGKYRSEECDPGGCLLELTTQLTIIMGGKAIWNNIQEVLLPWVMNLIGRYKRVSGSEKITPRWEQDYHLQPMGKLGLFYEYLEMIIQFGFVTLFVASFPLAPLLALVNNILEIRVDAWKLTTQFRRMVPEKAQDIGAWQPIMQGIAILAVVTNAMIIAFTSDMIPRLVYYWSFSIPPYGDHTYYTMDGYINNTLSVFNITDFKNTDKENPYIGLGNYTLCRYRDFRNPPGHPQEYKHNIYYWHVIAAKLAFIIVMEHIIYSVKFFISYAIPDVSKITKSKIKREKYLTQKLLHESHLKDLTKNMGIIAERIGGTVDNSVRPKLE
notes: TMEM16F (anoctamin-6), murine; point mutant F518H; A 3C recognition site stands between TMEM16F and the C-terminal Myc and SBP tags; no cleavage is described; also called F518H^noCa; F518H^Ca; source: TMEM16F KO cells in suspension culture, transient transfection (PEI MAX); purified (Strep-tactin, SEC on Superose 6) in digitonin, or reconstituted into MSP 2N2 nanodiscs (3 POPC:1 POPG)
B1: binds [1].

B2: murine TMEM16F mutant N562A (natural protein, UniProt Q6P9J9 1-911, looked up)
chain: MQMMTRKVLLNMELEEDDDEDGDIVLENFDQTIVCPTFGSLENQQDFRTPEFEEFNGKPDSLFFTDGQRRIDFILVYEDESKKENNKKGTNEKQKRKRQAYESNLICHGLQLEATRSVSDDKLVFVKVHAPWEVLCTYAEIMHIKLPLKPNDLKTRSPFGNLNWFTKVLRVNESVIKPEQEFFTAPFEKSRMNDFYILDRDSFFNPATRSRIVYFILSRVKYQVMNNVNKFGINRLVSSGIYKAAFPLHDCRFNYESEDISCPSERYLLYREWAHPRSIYKKQPLDLIRKYYGEKIGIYFAWLGYYTQMLLLAAVVGVACFLYGYLDQDNCTWSKEVCDPDIGGQILMCPQCDRLCPFWRLNITCESSKKLCIFDSFGTLIFAVFMGVWVTLFLEFWKRRQAELEYEWDTVELQQEEQARPEYEAQCNHVVINEITQEEERIPFTTCGKCIRVTLCASAVFFWILLIIASVIGIIVYRLSVFIVFSTTLPKNPNGTDPIQKYLTPQMATSITASIISFIIIMILNTIYEKVAIMITNFELPRTQTDYENSLTMKMFLFQFVAYYSSCFYIAFFKGKFVGYPGDPVYLLGKYRSEECDPGGCLLELTTQLTIIMGGKAIWNNIQEVLLPWVMNLIGRYKRVSGSEKITPRWEQDYHLQPMGKLGLFYEYLEMIIQFGFVTLFVASFPLAPLLALVNNILEIRVDAWKLTTQFRRMVPEKAQDIGAWQPIMQGIAILAVVTNAMIIAFTSDMIPRLVYYWSFSIPPYGDHTYYTMDGYINNTLSVFNITDFKNTDKENPYIGLGNYTLCRYRDFRNPPGHPQEYKHNIYYWHVIAAKLAFIIVMEHIIYSVKFFISYAIPDVSKITKSKIKREKYLTQKLLHESHLKDLTKNMGIIAERIGGTVDNSVRPKLE
notes: TMEM16F (anoctamin-6), murine; point mutant N562A; A 3C recognition site stands between TMEM16F and the C-terminal Myc and SBP tags; no cleavage is described; also called N562A^Ca; N562A^Cacc; source: TMEM16F KO cells in suspension culture, transient transfection (PEI MAX); purified (Strep-tactin, SEC on Superose 6) in digitonin
B2: binds [1].

B3: murine TMEM16F double mutant F518A/Q623A (natural protein, UniProt Q6P9J9 1-911, looked up)
chain: MQMMTRKVLLNMELEEDDDEDGDIVLENFDQTIVCPTFGSLENQQDFRTPEFEEFNGKPDSLFFTDGQRRIDFILVYEDESKKENNKKGTNEKQKRKRQAYESNLICHGLQLEATRSVSDDKLVFVKVHAPWEVLCTYAEIMHIKLPLKPNDLKTRSPFGNLNWFTKVLRVNESVIKPEQEFFTAPFEKSRMNDFYILDRDSFFNPATRSRIVYFILSRVKYQVMNNVNKFGINRLVSSGIYKAAFPLHDCRFNYESEDISCPSERYLLYREWAHPRSIYKKQPLDLIRKYYGEKIGIYFAWLGYYTQMLLLAAVVGVACFLYGYLDQDNCTWSKEVCDPDIGGQILMCPQCDRLCPFWRLNITCESSKKLCIFDSFGTLIFAVFMGVWVTLFLEFWKRRQAELEYEWDTVELQQEEQARPEYEAQCNHVVINEITQEEERIPFTTCGKCIRVTLCASAVFFWILLIIASVIGIIVYRLSVFIVFSTTLPKNPNGTDPIQKYLTPQMATSITASIISAIIIMILNTIYEKVAIMITNFELPRTQTDYENSLTMKMFLFQFVNYYSSCFYIAFFKGKFVGYPGDPVYLLGKYRSEECDPGGCLLELTTQLTIIMGGKAIWNNIAEVLLPWVMNLIGRYKRVSGSEKITPRWEQDYHLQPMGKLGLFYEYLEMIIQFGFVTLFVASFPLAPLLALVNNILEIRVDAWKLTTQFRRMVPEKAQDIGAWQPIMQGIAILAVVTNAMIIAFTSDMIPRLVYYWSFSIPPYGDHTYYTMDGYINNTLSVFNITDFKNTDKENPYIGLGNYTLCRYRDFRNPPGHPQEYKHNIYYWHVIAAKLAFIIVMEHIIYSVKFFISYAIPDVSKITKSKIKREKYLTQKLLHESHLKDLTKNMGIIAERIGGTVDNSVRPKLE
notes: TMEM16F (anoctamin-6), murine; double mutant F518A and Q623A; A 3C recognition site stands between TMEM16F and the C-terminal Myc and SBP tags; no cleavage is described; source: TMEM16F KO cells in suspension culture, transient transfection (PEI MAX); purified (Strep-tactin, SEC on Superose 6) in GDN
B3: binds [2].
